Laboratory results taken from paper PMC6821881, “Development of a Potent and Protective Germline-Like Antibody Lineage Against Zika Virus in a Convalescent Human” (Frontiers in Immunology, 2019).
Changes are numbered by the printed parent chain. Numbers in names are those of the source.

B1: 2H-6 (antibody, V domains shown)
VH: EVQLVQSGAEVKKPGASVKVSCKASGYTFTSYDVNWVRQATGQGLEWMGWLNPNSGNTGYAEKFQGRVTMTRNTSISTAYMELSSLRSEDTAVYYCARVSSGSYYGSYYYYYYGMDVWGQGTTVTVSS
VL: SYELTQPPSASGTPGQRVTISCSGSSSNIGNNYVHWYQQLPGSAPKLLIYRNNQRPSGVPDRFSGSKSGTSGSLAISGLRSEDEADYYCASWDDSLSGHWVFGGGTKVTVL
notes: also called ZK2B10 heavy chain somatic variant 2H-6; source: HEK 293T, transiently co-transfected, purified from supernatant (protein A agarose)
B2: 2H-9 (antibody, V domains shown)
VH: B1 VH with A9G, E10K, K12V, K13E, P14L, S31T, V34I, L51M, E62Q
VL: B1 VL
notes: also called ZK2B10 heavy chain somatic variant 2H-9; source: HEK 293T, transiently co-transfected, purified from supernatant (protein A agarose)
B3: 2H-10 (antibody, V domains shown)
VH: B1 VH with E1Q, A9V, K19E, K23Q, Y27I, F29S, V34I, T41N, L51M, E62Q
VL: B1 VL
notes: also called ZK2B10 heavy chain somatic variant 2H-10; source: HEK 293T, transiently co-transfected, purified from supernatant (protein A agarose)
B4: 2H-15 (antibody, V domains shown)
VH: B1 VH with L51M, E62Q
VL: B1 VL
notes: also called ZK2B10 heavy chain somatic variant 2H-15; source: HEK 293T, transiently co-transfected, purified from supernatant (protein A agarose)
B5: 2H-16 (antibody, V domains shown)
VH: B1 VH with E1Q, V34I, L51M, Y60C, E62Q
VL: B1 VL
notes: also called ZK2B10 heavy chain somatic variant 2H-16; source: HEK 293T, transiently co-transfected, purified from supernatant (protein A agarose)
B6: ZK2B10 (antibody, V domains shown)
VH: EVQLVQSGAEVKKPGASVKVSCKASGYTFTSGHTFPSYDINWVRQATGQGLEWMGWMNPNRGNTGYAQKFQGRVTMTRNTSINTAYMELSSLRSEDTAVYYCARVRSGTNYGSYYYYYYGMDVWGQGTTVTVSS
VL: B1 VL
notes: also called WT ZK2B10; wild-type (WT) ZK2B10; source: HEK 293T, transiently co-transfected, purified from supernatant (protein A agarose)
B7: 2L-1 (S31N+A91S) (antibody, V domains shown)
VH: B6 VH
VL: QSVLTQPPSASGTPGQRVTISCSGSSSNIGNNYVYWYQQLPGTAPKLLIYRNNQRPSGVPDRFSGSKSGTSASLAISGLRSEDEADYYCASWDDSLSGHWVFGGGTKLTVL
notes: also called double mutation (S31N+A91S) into 2L-1; source: HEK 293T, transiently co-transfected, purified from supernatant (protein A agarose)
B8: 2H-4 (antibody, V domains shown)
VH: B1 VH with E1Q, A9R, A24G, V34I, T41P, L51M, E62Q, E89G
VL: B1 VL
notes: also called ZK2B10 heavy chain somatic variant 2H-4; source: HEK 293T, transiently co-transfected, purified from supernatant (protein A agarose)
B9: 2H-5 (antibody, V domains shown)
VH: B1 VH with E1Q, K19N, S31M, V34I, A40T, L51M, E62Q
VL: B1 VL
notes: also called ZK2B10 heavy chain somatic variant 2H-5; source: HEK 293T, transiently co-transfected, purified from supernatant (protein A agarose)

Target: T1, ZIKV E DIII protein (residues 301-403) (Zika virus, isolate GZ01 (KU820898))
T1 construct: source: E. coli BL21 (RIL), pET28a, IPTG-induced; inclusion bodies solubilized and re-folded
Assay: ELISA; E protein or E DIII protein captured separately onto ELISA plates overnight at 4°C; each mAb (full-length IgG) serially diluted and applied; detected with anti-human IgG-HRP and TMB; EC50 by dose-response stimulation model
Settings: both partners purified

Binding result, binds:
B1
B2
B3
B4
B5
B6
B7
B8
B9

Target: T2, ZIKV E protein (GZ01) (Zika virus, isolate GZ01 (KU820898))
T2 construct: also called full-length E; surface envelope glycoprotein (E); source: E. coli BL21 (RIL), pET28a, IPTG-induced; inclusion bodies solubilized and re-folded
Assay: as above
Settings: both partners purified

Binding result, binds:
B1
B2
B3
B4
B5
B7
B8
B9
